# Patent US8658372
# Biological target: T1, botulinum toxoid B, P10844
# T1 chain: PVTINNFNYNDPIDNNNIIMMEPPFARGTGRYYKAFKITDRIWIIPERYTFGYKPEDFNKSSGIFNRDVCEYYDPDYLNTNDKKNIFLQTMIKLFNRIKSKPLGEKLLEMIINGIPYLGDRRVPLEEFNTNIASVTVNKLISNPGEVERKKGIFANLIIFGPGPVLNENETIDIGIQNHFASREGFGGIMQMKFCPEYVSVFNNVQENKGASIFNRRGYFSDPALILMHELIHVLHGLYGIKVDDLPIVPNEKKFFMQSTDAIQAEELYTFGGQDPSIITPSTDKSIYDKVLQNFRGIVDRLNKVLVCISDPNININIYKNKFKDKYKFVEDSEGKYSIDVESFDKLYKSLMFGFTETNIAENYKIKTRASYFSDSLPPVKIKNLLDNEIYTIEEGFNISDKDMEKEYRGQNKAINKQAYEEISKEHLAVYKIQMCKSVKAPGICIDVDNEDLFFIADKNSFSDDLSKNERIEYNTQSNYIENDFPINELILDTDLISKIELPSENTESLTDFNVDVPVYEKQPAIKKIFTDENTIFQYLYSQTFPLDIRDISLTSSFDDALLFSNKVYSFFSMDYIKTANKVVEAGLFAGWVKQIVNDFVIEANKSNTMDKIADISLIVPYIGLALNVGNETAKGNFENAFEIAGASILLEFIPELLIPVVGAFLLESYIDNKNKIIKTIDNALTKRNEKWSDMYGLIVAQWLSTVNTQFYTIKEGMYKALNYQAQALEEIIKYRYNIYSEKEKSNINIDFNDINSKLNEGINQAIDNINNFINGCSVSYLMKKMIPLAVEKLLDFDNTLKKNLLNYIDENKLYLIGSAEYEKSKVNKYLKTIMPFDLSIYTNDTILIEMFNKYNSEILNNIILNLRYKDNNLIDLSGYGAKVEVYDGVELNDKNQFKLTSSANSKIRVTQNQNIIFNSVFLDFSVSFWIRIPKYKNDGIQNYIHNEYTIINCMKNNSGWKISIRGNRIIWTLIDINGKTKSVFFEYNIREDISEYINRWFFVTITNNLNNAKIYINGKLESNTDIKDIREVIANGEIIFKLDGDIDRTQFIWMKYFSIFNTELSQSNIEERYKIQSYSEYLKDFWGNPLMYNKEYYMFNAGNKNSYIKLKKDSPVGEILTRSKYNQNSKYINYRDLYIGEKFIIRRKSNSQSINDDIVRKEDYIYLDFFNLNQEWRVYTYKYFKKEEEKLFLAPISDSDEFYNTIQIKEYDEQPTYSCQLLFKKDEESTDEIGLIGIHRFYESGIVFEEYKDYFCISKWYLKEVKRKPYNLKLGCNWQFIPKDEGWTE
binder,measurement,value
GIGAVLKVLTTGLPALISWIKRKRQQ (modifications not checked) [Melittin],limit of detection,< 5 ng/mL
